{"source": "patent US20110263454A1", "about": "“Methods of Identifying Functional Characteristics of Promoters, Transcription Modifying Proteins and Transcription Modulating Agents” (Salk Institute for Biological Studies, priority 2008, published 2011)", "key": {"[1]": {"system": "mUCP1 promoter", "experiment": "NHR-promoter luciferase screen, mUCP1 promoter", "assay_type": "cell-based, mouse", "settings": "for Luc. act., normalized to lacZ / Normalized Luc. act., normalized to control: mUCP1 promoter reporter, co-transfected HR, with or without its ligand; for Normalized Luc. act., normalized to control: relative to control; for luciferase activity normalized to lacZ activity and to a control, mUCP!: mUCP! promoter-luciferase, CV-1 cells, NHR +/- ligand, control = 1.00", "protocol": "(§1) The use, feasibility, and reproducibility of the functional NHR-promoter screen in a 48-well format have been tested validated. Briefly, there were co-expressed 50 ng of each NHR/NHR homodimer or NHR/RXR heterodimer with 100 ng promoter/luciferase construct and 50 ng of LacZ (as a control for transfection efficiency) in CV-1 cells using Fugene HD (Roche) as a transfection reagent (alternatively or additionally, a CMV-YFP construct can be used as a transfection control). Each of the nuclear hormone receptors that were used in these experiments was cloned into a pcDNA3.1 vector and comprised a C-terminally linked V5H6 tag. Twenty-four hours after transfection, appropriate ligands were added, where applicable, (see Table 5 for various ligands and concentrations and after 48 hrs, samples were assayed for luciferase and LacZ activity. To measure for luciferase activity 15 ul of sample was added to 30 ul of luciferase buffer (20 mM tricine, 1.07 mM MgCarbonate, 2.67 mM MgSulfate, 0.1 mM Naz-EDTA, 5 mM DTT, 5 mM ATP, 0.15 mg/ml CoA, 0.5 mM Luciferin), mixed briefly, and run in a Perkin Elmer Victor 5 luminometer. Thus, the functional NHR-promoter screen was used to observe the transcriptional activity of 29 promoters from various physiological pathways including inflammation, lipid and sugar metabolism, cholesterol transport, xenobiotic metabolism, and circadian rhythm.\n(§2) The promoters that facilitate transcription of the indicated gene products that were tested using the protocols described herein are listed in the first row of the table. The nuclear hormone receptors and, where applicable, ligands that were assayed for their transcriptional effects on the promoters are listed in the first column of the table. The data represent the luciferase activity of each sample normalized to both the lacZ activity of that sample and to a control, e.g., no NHR or ligand, as customary in the art. As described previously, these normalizations allow the transcriptional activity of each reporter cell to be compared to other samples.\n(§3) Tables 7-40 show the transcriptional effects of the hormone receptors, and, where applicable, ligands (orphan receptors are screened without ligand), on each individual promoter. […] The control data of each table are shown in their last rows."}, "[2]": {"system": "mUCP2 promoter", "experiment": "NHR-promoter luciferase screen, mUCP2 promoter", "assay_type": "cell-based, mouse", "settings": "for Luc. act., normalized to lacZ / Normalized Luc. act., normalized to control: mUCP2 promoter reporter, co-transfected HR, with or without its ligand; for Normalized Luc. act., normalized to control: relative to control; for luciferase activity normalized to lacZ activity and to a control, mUCP2: mUCP2 promoter-luciferase, CV-1 cells, NHR +/- ligand, control = 1.00", "protocol": "as §1, §2, §3"}, "[3]": {"system": "hPOMC promoter", "experiment": "NHR-promoter luciferase screen, hPOMC promoter", "assay_type": "cell-based, human", "settings": "for Luc. act., normalized to lacZ / Normalized Luc. act., normalized to control: hPOMC promoter, HR/ligand component; for hPOMC promoter reporter activity: transcription factor +/- ligand, control = 1.00", "protocol": "as §1, §2, §3"}, "[4]": {"system": "hIRF7 promoter", "experiment": "NHR-promoter luciferase screen, hIRF7 promoter", "assay_type": "cell-based, human", "settings": "for Normalized Luc. act., normalized to control / Luc. act., normalized to lacZ: IRF7 promoter reporter; for Normalized Luc. act., normalized to control: HR without or with its ligand, relative to control; for Luc. act., normalized to lacZ: hormone receptor (HR) without or with its ligand; for hIRF7 promoter reporter activity: transcription factor +/- ligand, control = 1.00", "protocol": "as §1, §2, §3"}, "[5]": {"system": "hIFNg promoter", "experiment": "NHR-promoter luciferase screen, hIFNg promoter", "assay_type": "cell-based, human", "settings": "for Luc. act., normalized to lacZ / Normalized Luc. act., normalized to control: IFNg promoter, HR component without or with ligand; for hIFNg promoter reporter activity: transcription factor +/- ligand, control = 1.00", "protocol": "as §1, §2, §3"}, "[6]": {"system": "SREBP1c promoter", "experiment": "NHR-promoter luciferase screen, SREBP1c promoter", "assay_type": "cell-based, mouse", "settings": "for Luc. act., normalized to lacZ / Normalized Luc. act., normalized to control: SREBP1c promoter, HR component without or with ligand; for mSREBP1-c promoter reporter activity: transcription factor +/- ligand, control = 1.00", "protocol": "as §1, §2, §3"}}}
{"molecule": "VDR: Vitamin D Receptor (NR1I1), cDNA driver", "values": [{"measurement": "Luc. act., normalized to lacZ", "setting": "[1]", "result": 2.8}, {"measurement": "Normalized Luc. act., normalized to control", "setting": "[1]", "result": 0.6}, {"measurement": "luciferase activity normalized to lacZ activity and to a control, mUCP!", "setting": "[1]", "result": 0.63}, {"measurement": "Luc. act., normalized to lacZ", "setting": "[2]", "result": 136.2}, {"measurement": "Normalized Luc. act., normalized to control", "setting": "[2]", "result": 1.2}, {"measurement": "luciferase activity normalized to lacZ activity and to a control, mUCP2", "setting": "[2]", "result": 1.24}, {"measurement": "Luc. act., normalized to lacZ", "setting": "[3]", "result": 3.8}, {"measurement": "Normalized Luc. act., normalized to control", "setting": "[3]", "result": 0.9}, {"measurement": "hPOMC promoter reporter activity", "setting": "[3]", "result": 0.90}, {"measurement": "Normalized Luc. act., normalized to control", "setting": "[4]", "result": 1.1}, {"measurement": "Luc. act., normalized to lacZ", "setting": "[4]", "result": 30.2}, {"measurement": "hIRF7 promoter reporter activity", "setting": "[4]", "result": 1.15}, {"measurement": "Luc. act., normalized to lacZ", "setting": "[5]", "result": 16.06}, {"measurement": "Normalized Luc. act., normalized to control", "setting": "[5]", "result": 1.0}, {"measurement": "hIFNg promoter reporter activity", "setting": "[5]", "result": 1.01}, {"measurement": "Luc. act., normalized to lacZ", "setting": "[6]", "result": 460.1}, {"measurement": "Normalized Luc. act., normalized to control", "setting": "[6]", "result": 1.4}, {"measurement": "mSREBP1-c promoter reporter activity", "setting": "[6]", "result": 1.43}]}
{"molecule": "HNF4a: Hepatocyte Nuclear Factor α (NR2A1), cDNA driver (protein, UniProt P41235 1-474, looked up) Hepatocyte nuclear factor …: MRLSKTLVDMDMADYSAALDPAYTTLEFENVQVLTMGNDTSPSEGTNLNAPNSLGVSALCAICGDRATGKHYGASSCDGCKGFFRRSVRKNHMYSCRFSRQCVVDKDKRNQCRYCRLKKCFRAGMKKEAVQNERDRISTRRSSYEDSSLPSINALLQAEVLSRQITSPVSGINGDIRAKKIASIADVCESMKEQLLVLVEWAKYIPAFCELPLDDQVALLRAHAGEHLLLGATKRSMVFKDVLLLGNDYIVPRHCPELAEMSRVSIRILDELVLPFQELQIDDNEYAYLKAIIFFDPDAKGLSDPGKIKRLRSQVQVSLEDYINDRQYDSRGRFGELLLLLPTLQSITWQMIEQIQFIKLFGMAKIDNLLQEMLLGGSPSDAPHAHHPLHPHLMQEHMGTNVIVANTMPTHLSNGQMCEWPRPRGQAATPETPQPSPPGGSGSEPYKLLPGAVATIVKPLSAIPQPTITKQEVI", "values": [{"measurement": "Luc. act., normalized to lacZ", "setting": "[1]", "result": 2.8}, {"measurement": "Normalized Luc. act., normalized to control", "setting": "[1]", "result": 0.6}, {"measurement": "luciferase activity normalized to lacZ activity and to a control, mUCP!", "setting": "[1]", "result": 0.63}, {"measurement": "Luc. act., normalized to lacZ", "setting": "[2]", "result": 136.4}, {"measurement": "Normalized Luc. act., normalized to control", "setting": "[2]", "result": 1.2}, {"measurement": "luciferase activity normalized to lacZ activity and to a control, mUCP2", "setting": "[2]", "result": 1.24}, {"measurement": "Luc. act., normalized to lacZ", "setting": "[3]", "result": 3.5}, {"measurement": "Normalized Luc. act., normalized to control", "setting": "[3]", "result": 0.8}, {"measurement": "hPOMC promoter reporter activity", "setting": "[3]", "result": 0.81}, {"measurement": "Normalized Luc. act., normalized to control", "setting": "[4]", "result": 1.4}, {"measurement": "Luc. act., normalized to lacZ", "setting": "[4]", "result": 36.0}, {"measurement": "hIRF7 promoter reporter activity", "setting": "[4]", "result": 1.36}, {"measurement": "Luc. act., normalized to lacZ", "setting": "[5]", "result": 8.7}, {"measurement": "Normalized Luc. act., normalized to control", "setting": "[5]", "result": 0.5}, {"measurement": "hIFNg promoter reporter activity", "setting": "[5]", "result": 0.55}, {"measurement": "Luc. act., normalized to lacZ", "setting": "[6]", "result": 263.6}, {"measurement": "Normalized Luc. act., normalized to control", "setting": "[6]", "result": 0.8}, {"measurement": "mSREBP1-c promoter reporter activity", "setting": "[6]", "result": 0.82}]}
{"molecule": "LXRb: Liver X Receptor β (NR1H2), cDNA driver (protein, UniProt P55055 1-460, looked up) Oxysterols receptor LXR-beta: MSSPTTSSLDTPLPGNGPPQPGAPSSSPTVKEEGPEPWPGGPDPDVPGTDEASSACSTDWVIPDPEEEPERKRKKGPAPKMLGHELCRVCGDKASGFHYNVLSCEGCKGFFRRSVVRGGARRYACRGGGTCQMDAFMRRKCQQCRLRKCKEAGMREQCVLSEEQIRKKKIRKQQQESQSQSQSPVGPQGSSSSASGPGASPGGSEAGSQGSGEGEGVQLTAAQELMIQQLVAAQLQCNKRSFSDQPKVTPWPLGADPQSRDARQQRFAHFTELAIISVQEIVDFAKQVPGFLQLGREDQIALLKASTIEIMLLETARRYNHETECITFLKDFTYSKDDFHRAGLQVEFINPIFEFSRAMRRLGLDDAEYALLIAINIFSADRPNVQEPGRVEALQQPYVEALLSYTRIKRPQDQLRFPRMLMKLVSLRTLSSVHSEQVFALRLQDKKLPPLLSEIWDVHE", "values": [{"measurement": "Luc. act., normalized to lacZ", "setting": "[1]", "result": 17.2}, {"measurement": "Normalized Luc. act., normalized to control", "setting": "[1]", "result": 3.9}, {"measurement": "luciferase activity normalized to lacZ activity and to a control, mUCP!", "setting": "[1]", "result": 3.88}, {"measurement": "Luc. act., normalized to lacZ", "setting": "[2]", "result": 170.7}, {"measurement": "Normalized Luc. act., normalized to control", "setting": "[2]", "result": 1.6}, {"measurement": "luciferase activity normalized to lacZ activity and to a control, mUCP2", "setting": "[2]", "result": 1.55}, {"measurement": "Luc. act., normalized to lacZ", "setting": "[3]", "result": 6.3}, {"measurement": "Normalized Luc. act., normalized to control", "setting": "[3]", "result": 1.5}, {"measurement": "hPOMC promoter reporter activity", "setting": "[3]", "result": 1.46}, {"measurement": "Normalized Luc. act., normalized to control", "setting": "[4]", "result": 1.7}, {"measurement": "Luc. act., normalized to lacZ", "setting": "[4]", "result": 45.1}, {"measurement": "hIRF7 promoter reporter activity", "setting": "[4]", "result": 1.71}, {"measurement": "Luc. act., normalized to lacZ", "setting": "[5]", "result": 19.35}, {"measurement": "Normalized Luc. act., normalized to control", "setting": "[5]", "result": 1.2}, {"measurement": "hIFNg promoter reporter activity", "setting": "[5]", "result": 1.22}, {"measurement": "regulation of the SREBP1c promoter", "setting": "[6]; FIG. 2b, in words", "result": "specific and strong activation"}, {"measurement": "Luc. act., normalized to lacZ", "setting": "[6]", "result": 4020.7}, {"measurement": "Normalized Luc. act., normalized to control", "setting": "[6]", "result": 12.5}, {"measurement": "mSREBP1-c promoter reporter activity", "setting": "[6]", "result": 12.48}]}
